Data published in the Immune Epitope Database (IEDB).
Values belong to the sequence of their own block, whether it stands above or below them.

Columns and labels:
HLA-C*06:02 = assay: IEDB peptide-MHC binding, purified MHC/direct/fluorescence; filed as Kd, often an IC50 or EC50 that approximates it; ≥ and ≤ were set here for values at or beyond the usual limits of such assays; settings: source organism: Campylobacter jejuni subsp. jejuni NCTC 11168 = ATCC 700819
HLA-B*08:02 = assay: as above
HLA-B*40:13 = assay: IEDB peptide-MHC binding, purified MHC/competitive/fluorescence; filed as Kd, often an IC50 or EC50 that approximates it; ≥ and ≤ were set here for values at or beyond the usual limits of such assays
HLA-B*15:42 = assay: as above
HLA-A*32:07 = assay: as above; settings: source organism: Campylobacter jejuni subsp. jejuni NCTC 11168 = ATCC 700819
HLA-B*46:01 [1] = assay: as above; settings: source organism: Campylobacter jejuni subsp. jejuni NCTC 11168 = ATCC 700819
HLA-B*45:06 = assay: as above
HLA-B*83:01 = assay: as above
HLA-A*68:23 = assay: as above
HLA-B*27:20 = assay: as above; settings: source organism: Escherichia coli 536
HLA-B*40:01 [2] = assay: as above; settings: source organism: Escherichia coli 536
HLA-C*05:01 = assay: IEDB peptide-MHC binding, purified MHC/direct/fluorescence; filed as Kd, often an IC50 or EC50 that approximates it; ≥ and ≤ were set here for values at or beyond the usual limits of such assays; settings: source organism: West Nile virus
HLA-A*11:01 = assay: as above
HLA-A*29:02 = assay: as above; settings: source organism: West Nile virus
HLA-A*03:01 = assay: as above
HLA-B*48:01 = assay: as above
HLA-A*31:01 = assay: as above
HLA-B*18:01 = assay: as above; settings: source organism: West Nile virus
HLA-B*46:01 [3] = assay: as above
HLA-B*44:02 = assay: as above
HLA-B*15:09 = assay: as above
HLA-B*57:01 = assay: as above
HLA-B*15:01 = assay: as above
HLA-B*39:01 = assay: as above
HLA-B*58:01 = assay: as above
HLA-B*27:05 [4] = assay: as above
HLA-B*40:01 [5] = assay: as above
HLA-B*07:02 = assay: as above
HLA-B*35:01 = assay: as above; settings: source organism: Yersinia pestis
HLA-A*26:01 = assay: as above; settings: source organism: Yersinia pestis
HLA-A*69:01 [6] = assay: as above; settings: source organism: Yersinia pestis
HLA-A*01:01 = assay: as above
HLA-A*02:01 = assay: as above
HLA-B*15:02 = assay: as above
HLA-B*08:01 = assay: as above; settings: source organism: Yersinia pestis
HLA-B*27:05 [7] = assay: IEDB peptide-MHC binding, purified MHC/competitive/fluorescence; ≥ and ≤ were set here for values at or beyond the usual limits of such assays
HLA-B*38:01 = assay: IEDB peptide-MHC binding, purified MHC/direct/fluorescence; filed as Kd, often an IC50 or EC50 that approximates it; ≥ and ≤ were set here for values at or beyond the usual limits of such assays; settings: source organism: Giardia lamblia ATCC 50803
HLA-A*69:01 [8] = assay: IEDB peptide-MHC binding, purified MHC/competitive/fluorescence; filed as Kd, often an IC50 or EC50 that approximates it; ≥ and ≤ were set here for values at or beyond the usual limits of such assays; settings: source organism: Giardia lamblia ATCC 50803
HLA-B*15:17 = assay: as above; settings: source organism: Giardia lamblia ATCC 50803
HLA-C*04:01 = assay: IEDB peptide-MHC binding, purified MHC/direct/fluorescence; filed as Kd, often an IC50 or EC50 that approximates it; ≥ and ≤ were set here for values at or beyond the usual limits of such assays; settings: source organism: Influenza A virus (A/turkey/Ohio/313053/2004(H3N2))
HLA-A*24:02 = assay: IEDB peptide-MHC binding, purified MHC/competitive/fluorescence; filed as Kd, often an IC50 or EC50 that approximates it; ≥ and ≤ were set here for values at or beyond the usual limits of such assays
[9] = source organism: Campylobacter jejuni subsp. jejuni NCTC 11168 = ATCC 700819
[10] = source organism: Escherichia coli 536
[11] = source organism: West Nile virus
[12] = source organism: Yersinia pestis
[13] = source organism: Mycobacterium tuberculosis variant bovis BCG str. Pasteur 1173P2
[14] = source organism: Giardia lamblia ATCC 50803

Sequence: YMKKRYEEF
- Kd (HLA-C*06:02): ≥ 20 µM
- Kd (HLA-B*08:02; source organism: Campylobacter jejuni subsp. jejuni 81116): 0.127 µM
- Kd (HLA-B*40:13; [9]): 0.326 µM
- Kd (HLA-B*15:42; [9]): ≥ 5 µM
- Kd (HLA-A*32:07): 0.232 µM
- Kd (HLA-B*46:01 [1]): 0.188 µM
- Kd (HLA-B*45:06; [9]): ≥ 5 µM
- Kd (HLA-B*83:01; [9]): ≥ 5 µM

- Kd (HLA-B*40:13; [10]): 0.0336 µM
- Kd (HLA-A*68:23; [10]): 0.121 µM
- Kd (HLA-B*15:42; [10]): ≥ 5 µM
- Kd (HLA-B*27:20): 0.176 µM
- Kd (HLA-B*45:06; [10]): ≥ 5 µM
- Kd (HLA-B*83:01; [10]): ≥ 5 µM
- Kd (HLA-B*40:01 [2]): 0.0103 µM
Sequence: KEMGFSPRL

Sequence: TSDYINTSL
- Kd (HLA-C*05:01): 0.21 µM
- Kd (HLA-A*11:01; [11]): ≥ 20 µM
- Kd (HLA-A*29:02): ≥ 20 µM
- Kd (HLA-A*03:01; [11]): ≥ 20 µM
- Kd (HLA-B*48:01; [11]): ≥ 20 µM
- Kd (HLA-A*31:01; [11]): ≥ 20 µM
- Kd (HLA-B*18:01): ≥ 20 µM
- Kd (HLA-B*46:01 [3]; [11]): ≥ 20 µM
- Kd (HLA-B*44:02; [11]): ≥ 20 µM
- Kd (HLA-B*15:09; source organism: West Nile virus strain PTRoxo): ≥ 5 µM
- Kd (HLA-B*57:01; [11]): ≥ 20 µM
- Kd (HLA-B*15:01; [11]): ≥ 20 µM
- Kd (HLA-B*39:01; [11]): 1.48 µM
- Kd (HLA-B*58:01; [11]): ≥ 20 µM
- Kd (HLA-B*27:05 [4]; [11]): ≥ 20 µM
- Kd (HLA-B*40:01 [5]; [11]): ≥ 20 µM

Sequence: MQLQLNCAY
- Kd (HLA-B*07:02; [12]): ≥ 10 µM
- Kd (HLA-A*11:01; [12]): ≥ 20 µM
- Kd (HLA-A*03:01; [12]): ≥ 20 µM
- Kd (HLA-B*35:01): 0.0337 µM
- Kd (HLA-A*26:01): ≥ 20 µM
- Kd (HLA-A*69:01 [6]): 1.33 µM
- Kd (HLA-A*01:01; [12]): 2.77 µM
- Kd (HLA-A*31:01; [12]): 6.35 µM
- Kd (HLA-A*02:01; [12]): ≥ 20 µM
- Kd (HLA-B*46:01 [3]; [12]): ≥ 20 µM
- Kd (HLA-B*15:02; source organism: Yersinia pestis CA88-4125): 0.015 µM
- Kd (HLA-B*44:02; [12]): ≥ 20 µM
- Kd (HLA-B*15:01; [12]): 0.112 µM
- Kd (HLA-B*08:01): ≥ 20 µM
- Kd (HLA-B*27:05 [4]; [12]): ≥ 20 µM
- Kd (HLA-B*40:01 [5]; [12]): 0.705 µM

Sequence: TTFDLTLRR
- Kd (HLA-A*68:23; [13]): 0.0121 µM
- Kd (HLA-B*15:42; [13]): ≥ 5 µM
- Kd (HLA-B*45:06; [13]): ≥ 5 µM
- Kd (HLA-B*83:01; [13]): ≥ 5 µM

Sequence: RQLESRLGY
- Kd (HLA-B*07:02; [12]): ≥ 20 µM
- Kd (HLA-A*11:01; [12]): 0.13 µM
- Kd (HLA-A*03:01; [12]): 0.0616 µM
- Kd (HLA-A*26:01): ≥ 20 µM
- Kd (HLA-A*69:01 [6]): ≥ 20 µM
- Kd (HLA-A*31:01; [12]): 0.288 µM
- Kd (HLA-A*02:01; [12]): ≥ 20 µM
- Kd (HLA-B*46:01 [3]; [12]): ≥ 20 µM
- Kd (HLA-B*15:02; source organism: Yersinia enterocolitica subsp. enterocolitica 8081): 0.077 µM
- Kd (HLA-B*15:01; [12]): 0.146 µM
- Kd (HLA-B*08:01): ≥ 20 µM
- Kd (HLA-B*58:01; [12]): ≥ 20 µM
- Kd (HLA-B*27:05 [4]; [12]): 0.0656 µM
- Kd (HLA-B*40:01 [5]; [12]): 3.74 µM

- IC50 (HLA-B*27:05 [7]; source organism: Homo sapiens): 3.2 µM
Sequence: RRFFPYYV

Sequence: ETESVNSNY
- Kd (HLA-B*07:02; [14]): ≥ 20 µM
- Kd (HLA-A*11:01; [14]): ≥ 20 µM
- Kd (HLA-A*03:01; [14]): ≥ 20 µM
- Kd (HLA-B*48:01; [14]): ≥ 20 µM
- Kd (HLA-A*01:01; [14]): 0.0188 µM
- Kd (HLA-A*31:01; [14]): ≥ 20 µM
- Kd (HLA-A*02:01; [14]): ≥ 20 µM
- Kd (HLA-B*46:01 [3]; [14]): ≥ 20 µM
- Kd (HLA-B*15:09; [14]): ≥ 20 µM
- Kd (HLA-B*57:01; [14]): ≥ 20 µM
- Kd (HLA-B*15:01; [14]): ≥ 20 µM
- Kd (HLA-B*38:01): ≥ 20 µM
- Kd (HLA-B*39:01; [14]): ≥ 20 µM
- Kd (HLA-B*08:02; [14]): ≥ 20 µM
- Kd (HLA-B*58:01; [14]): ≥ 20 µM
- Kd (HLA-B*27:05 [4]; [14]): ≥ 20 µM
- Kd (HLA-B*40:01 [5]; [14]): ≥ 20 µM
- Kd (HLA-A*69:01 [8]): ≥ 20 µM
- Kd (HLA-B*15:17): ≥ 20 µM

Sequence: RYSGFVRTL
- Kd (HLA-C*04:01): ≥ 20 µM
- Kd (HLA-A*24:02; source organism: Influenza A virus (A/turkey/Ohio/313053/2004(H3N2))): 0.0011 µM

Sequence: GGAAICGKY
- IC50 (HLA-B*27:05 [7]; source organism: Hepacivirus hominis): ≥ 750 µM

Sequence: MYSDFHFI
- Kd (HLA-A*24:02; source organism: Influenza A virus (A/X-31(H3N2))): 0.146 µM
